For assay [1], the target named is human dipeptidyl peptidase 4 ectodomain (hDPP4, residues 39-766) (human) (UniProt P27487). Put plainly: SPR; BIAcore T200, 25 °C; […]; 1:1 Langmuir binding model. (In SPR one partner is held on a chip, and binding of the other changes the refractive index at the surface.)
Assay [2] addresses T1, human dipeptidyl peptidase 4 ectodomain (hDPP4, residues 39-766) (human, UniProt P27487 39-766).
T1 construct: also called human DPP4
The assay is described as above. The settings on record: both partners purified.

Among the data in paper PMC11578449 (PLOS Pathogens, 2024) are koff and kon values, retold here.

T1 sequence (P27487 39-766): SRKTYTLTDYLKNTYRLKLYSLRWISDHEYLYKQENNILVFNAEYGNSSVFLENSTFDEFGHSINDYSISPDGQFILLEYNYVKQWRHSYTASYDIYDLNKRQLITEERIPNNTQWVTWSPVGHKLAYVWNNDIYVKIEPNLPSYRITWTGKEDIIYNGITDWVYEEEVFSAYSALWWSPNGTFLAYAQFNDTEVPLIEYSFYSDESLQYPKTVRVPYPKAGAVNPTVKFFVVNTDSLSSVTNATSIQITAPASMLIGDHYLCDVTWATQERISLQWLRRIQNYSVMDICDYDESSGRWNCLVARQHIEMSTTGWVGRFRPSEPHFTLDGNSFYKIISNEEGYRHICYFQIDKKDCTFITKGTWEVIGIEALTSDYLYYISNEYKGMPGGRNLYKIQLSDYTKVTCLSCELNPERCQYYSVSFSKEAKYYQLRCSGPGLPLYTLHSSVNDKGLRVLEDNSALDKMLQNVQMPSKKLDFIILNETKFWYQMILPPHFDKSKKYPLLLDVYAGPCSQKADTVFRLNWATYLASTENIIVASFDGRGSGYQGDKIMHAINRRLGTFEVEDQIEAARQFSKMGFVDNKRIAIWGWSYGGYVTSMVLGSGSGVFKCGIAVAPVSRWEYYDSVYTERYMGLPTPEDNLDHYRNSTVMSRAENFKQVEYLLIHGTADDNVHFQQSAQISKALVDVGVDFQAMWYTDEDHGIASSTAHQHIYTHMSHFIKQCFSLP
human dipeptidyl peptidase 4 ectodomain (hDPP4, residues 39-766) (human), sequence (P27487 39-766): as above

In general, koff refers to the first-order rate constant of dissociation. Usually kon stands for the second-order rate constant of association. A lower kon goes with slower complex formation. In assay [1], “MjHKU4r-CoV-1 spike receptor binding domain (residues 375-614) (domain or fragment)” displayed a koff of 0.00368 s⁻¹ and a kon of 17000 M⁻¹ s⁻¹.

B1: Ty-BatCoV-HKU4 spike receptor binding domain (residues E372-Y611) (domain or fragment)
chain: EASATGTFIEQPNATECDFSPMLTGVAPQVYNFKRLVFSNCNYNLTKLLSLFAVDEFSCNGISPDSIARGCYSTLTVDYFAYPLSMKSYIRPGSAGNIPLYNYKQSFANPTCRVMASVLANVTITKPHAYGYISKCSRLTGANQDVETPLYINPGEYSICRDFSPGGFSEDGQVFKRTLTQFEGGGLLIGVGTRVPMTDNLQMSFIISVQYGTGTDSVCPMLDLGDSLTITNRLGKCVDY
In assay [2], B1 registered a koff of 0.00684 s⁻¹ and a kon of 1070 M⁻¹ s⁻¹.
